# Columns and labels:
# [1] = molecular target: MjNhaP1 D161A mutant (NhaP1 Na+/H+ antiporter from Methanocaldococcus jannaschii) (Methanocaldococcus jannaschii) (UniProt Q60362); experiment: Western blotting; dimers observed by Western blotting; data not shown; no conditions told
# [2] = molecular target: MjNhaP1 N160A mutant (NhaP1 Na+/H+ antiporter from Methanocaldococcus jannaschii) (Methanocaldococcus jannaschii) (UniProt Q60362); experiment: as above
stoichiometry N [1],stoichiometry N [2],Substance
2,–,MjNhaP1 D161A mutant (NhaP1 Na+/H+ antiporter from Methanocaldococcus jannaschii) (from UniProt Q60362 1-426) (natural protein)
–,2,MjNhaP1 N160A mutant (NhaP1 Na+/H+ antiporter from Methanocaldococcus jannaschii) (from UniProt Q60362 1-426) (natural protein)

# Source: article PMC4036328
